Assay results from article PMC8694150, “Characterization of NucPNP and NucV involved in the early steps of nucleocidin biosynthesis in Streptomyces calvus” (RSC Advances, 2021).
Blank lines part the entries; values can stand above or below the molecule they belong to.

Experiments:
ScAPRT = target: T1, ScAPRT (Streptomyces calvus, UniProt A0A514K045); experiment: HPLC of AMP formation, Michaelis-Menten fit; assay type: biochemical; details: 10 mM MgCl2, 50 mM Tris-HCl, 150 mM NaCl, pH 7.5, room temperature, apparent
T1 construct: gene apt; N-terminal 6-His tag kept; expressed in E. coli BL21(DE3); housekeeping APRT, not NucV
Source text: HPLC of AMP formation, Michaelis-Menten fit on ScAPRT

NucV = target: T2, NucV (Streptomyces calvus, UniProt A0A142C6V8); experiment: HPLC of AMP formation, Michaelis-Menten fit; assay type: biochemical; details: 10 mM MgCl2, 50 mM Tris-HCl, 150 mM NaCl, pH 7.5, room temperature, apparent
T2 construct: gene apt; N-terminal 6-His tag kept; expressed in E. coli BL21(DE3)
Source text: HPLC of AMP formation, Michaelis-Menten fit on NucV

[1] = test system: T3, CSC[C@H]1O[C@@H](n2cnc3c(N)ncnc32)[C@H](O)[C@@H]1O; experiment: purified protein; assay type: biochemical, Streptomyces calvus; details: 10 mM phosphate, 50 mM Tris-HCl, 150 mM NaCl, pH 7.5, room temperature, apparent
T3 construct: expressed in E. coli SHuffle T7 Express lysY; amylose then Ni-NTA
Source text: (§1) HPLC of adenine formation, Michaelis-Menten fit on MBP-NucPNP

[2] = test system: T4, Nc1ncnc2c1ncn2[C@@H]1O[C@H](CO)[C@@H](O)[C@H]1O; experiment: purified protein; assay type: biochemical, Streptomyces calvus; details: 10 mM phosphate, 50 mM Tris-HCl, 150 mM NaCl, pH 7.5, room temperature, apparent
T4 construct: expressed in E. coli SHuffle T7 Express lysY; amylose then Ni-NTA
Source text: as §1

[3] = substrate: O=P(O)(O)OC[C@H]1O[C@H](OP(=O)(O)OP(=O)(O)O)[C@H](O)[C@@H]1O; experiment: HPLC of AMP formation, Michaelis-Menten fit; assay type: biochemical, Escherichia coli; details: 500 μM adenine, 10 mM MgCl2, 50 mM Tris-HCl, 150 mM NaCl, pH 7.5, room temperature, apparent
purified protein = substrate: Nc1ncnc2nc[nH]c12; experiment: purified protein; details: 500 μM PRPP, 10 mM MgCl2, 50 mM Tris-HCl, 150 mM NaCl, pH 7.5, room temperature, apparent

T1 sequence (A0A514K045 entry or part of it): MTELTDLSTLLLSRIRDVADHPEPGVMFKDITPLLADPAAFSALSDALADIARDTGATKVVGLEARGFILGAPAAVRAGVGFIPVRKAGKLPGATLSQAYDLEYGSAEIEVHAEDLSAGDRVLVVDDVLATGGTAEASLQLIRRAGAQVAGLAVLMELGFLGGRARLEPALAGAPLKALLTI
T2 sequence (A0A142C6V8 entry or part of it): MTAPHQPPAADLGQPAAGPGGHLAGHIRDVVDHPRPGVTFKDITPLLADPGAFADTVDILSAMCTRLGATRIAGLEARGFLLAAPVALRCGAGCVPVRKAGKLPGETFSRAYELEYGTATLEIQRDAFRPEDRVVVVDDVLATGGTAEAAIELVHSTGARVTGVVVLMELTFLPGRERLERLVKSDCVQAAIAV

Molecule: MBP-NucPNP (Streptomyces calvus)
Km [1]: 43.5 ± 4.1 µM
kcat [1]: 0.15 ± 0.01 s⁻¹
kcat/Km [1]: 3400 M⁻¹ s⁻¹
Km [2]: 90.3 ± 8.2 µM
kcat [2]: 0.49 ± 0.02 s⁻¹
kcat/Km [2]: 5500 M⁻¹ s⁻¹

B1: EcAPRT (Escherichia coli K-12) (protein)
chain: MTATAQQLEYLKNSIKSIQDYPKPGILFRDVTSLLEDPKAYALSIDLLVERYKNAGITKVVGTEARGFLFGAPVALGLGVGFVPVRKPGKLPRETISETYDLEYGTDQLEIHVDAIKPGDKVLVVDDLLATGGTIEATVKLIRRLGGEVADAAFIINLFDLGGEQRLEKQGITSYSLVPFPGH
notes: N-terminal 6-His tag kept; expressed in E. coli BL21(DE3)
Km [3]: 46.4 ± 9.0 µM
kcat [3]: 15.9 ± 1.3 s⁻¹
Km (purified protein): 9.6 ± 2.5 µM
kcat (purified protein): 27.3 ± 1.9 s⁻¹

Second part, the molecule after the results:

Km (ScAPRT; 500 μM PRPP): 2.8 ± 0.6 µM
Km (NucV; 500 μM PRPP): 6.8 ± 1.4 µM
Molecule: Nc1ncnc2nc[nH]c12 [compound 3, adenine]

Km (ScAPRT; 500 μM adenine): 9.8 ± 2 µM
Km (NucV; 500 μM adenine): 21.4 ± 3 µM
Molecule: O=P(O)(O)OC[C@H]1O[C@H](OP(=O)(O)OP(=O)(O)O)[C@H](O)[C@@H]1O [compound 5, 5-phospho-α-D-ribose-1-diphosphate]
